Measurements as given in US20240301086A1 (APTEVO RESEARCH AND DEVELOPMENT, published 2024).

T1: Full-length cynomolgus monkey PSMA (TSC308), on cells (cynomolgus monkey, UniProt Q04609 1-750 (human entry))
T1 construct: also called cyno PSMA; CHOK1SV/cynoPSMA
T1 chain: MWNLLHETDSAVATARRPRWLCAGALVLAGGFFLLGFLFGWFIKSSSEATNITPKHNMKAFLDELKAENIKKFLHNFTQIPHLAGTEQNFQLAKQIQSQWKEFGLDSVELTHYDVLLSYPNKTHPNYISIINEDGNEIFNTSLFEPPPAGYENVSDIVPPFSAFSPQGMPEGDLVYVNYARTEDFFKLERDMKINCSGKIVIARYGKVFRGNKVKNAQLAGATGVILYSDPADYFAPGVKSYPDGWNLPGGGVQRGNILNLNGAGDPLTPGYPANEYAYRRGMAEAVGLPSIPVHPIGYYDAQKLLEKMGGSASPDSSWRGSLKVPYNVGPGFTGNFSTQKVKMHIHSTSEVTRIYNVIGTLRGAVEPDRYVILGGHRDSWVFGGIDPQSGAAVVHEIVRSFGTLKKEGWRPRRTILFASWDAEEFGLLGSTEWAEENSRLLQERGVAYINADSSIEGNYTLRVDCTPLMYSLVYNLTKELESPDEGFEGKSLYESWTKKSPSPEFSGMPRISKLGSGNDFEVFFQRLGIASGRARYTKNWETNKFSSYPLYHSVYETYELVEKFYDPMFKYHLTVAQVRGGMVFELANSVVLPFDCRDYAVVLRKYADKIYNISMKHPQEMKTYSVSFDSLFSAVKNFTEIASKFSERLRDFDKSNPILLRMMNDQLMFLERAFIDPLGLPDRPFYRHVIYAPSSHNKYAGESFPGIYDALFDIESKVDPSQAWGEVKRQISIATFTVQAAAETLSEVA


What was measured:
human Fcγ receptor I = human Fcγ receptor I (human, UniProt P12314 16-288); experiment: SPR (Biacore T200), construct amine-coupled, Fcγ receptor as analyte
human Fcγ receptor I, sequence (P12314 16-288): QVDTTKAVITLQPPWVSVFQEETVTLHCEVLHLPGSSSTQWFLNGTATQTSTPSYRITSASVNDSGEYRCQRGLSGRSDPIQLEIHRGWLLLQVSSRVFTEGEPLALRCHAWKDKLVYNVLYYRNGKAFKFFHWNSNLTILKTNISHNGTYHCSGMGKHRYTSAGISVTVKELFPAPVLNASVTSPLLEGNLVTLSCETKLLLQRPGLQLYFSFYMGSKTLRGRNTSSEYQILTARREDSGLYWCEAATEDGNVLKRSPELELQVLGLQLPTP
Procedure: (§1) The Fc region incorporated into anti-PSMA bispecific constructs contained mutations intended to reduce or abolish binding to common human and cynomolgus Fc gamma receptors. SPR experiments were conducted at 25° C. in HBS-EP+ with 0.2% BSA buffer on a Biacore T200 system to evaluate the impact of these mutations on binding. For these experiments, three flow cells of a CM5 sensor chip were immobilized with anti-PSMA bispecifics by standard amine coupling to a response level of ˜2000 RU. A blank immobilization was performed on flow cell #1 for purposes of background signal subtraction. Both human and cynomolgus monkey Fcγ receptors (purchased from R&D Systems) were diluted in HBS-EP+ with 0.2% BSA to 4-6 μM and then flowed as analytes at 30 μL/min for 120 seconds followed by a 240 second dissociation step. No regeneration step was required. Blank-subtracted sensorgrams were visually inspected for binding to each of the Fcγ receptor proteins. […] Attenuated binding to Fcγ receptors IIA (both polymorphic variants) and IIB/C was observed. PSMA01107 and PSMA01108 share the same Fc amino acid sequence and therefore equivalent Fcγ receptor binding behavior was expected.

[1] = target: human Fcγ receptor IIIA, V176 variant (human, UniProt P08637 17-208); experiment: as above
human Fcγ receptor IIIA, V176 variant, sequence (P08637 other isoform, or with tags, fused parts or gaps mutant): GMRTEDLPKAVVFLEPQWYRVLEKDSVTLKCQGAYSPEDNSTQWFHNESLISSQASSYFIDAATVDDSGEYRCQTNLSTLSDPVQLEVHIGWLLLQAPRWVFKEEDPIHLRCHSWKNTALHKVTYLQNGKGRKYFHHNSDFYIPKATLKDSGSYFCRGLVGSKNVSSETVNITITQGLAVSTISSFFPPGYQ
Procedure: as §1

[2] = target: human Fcγ receptor IIIA, F176 variant (human, UniProt P08637 17-208); experiment: as above
human Fcγ receptor IIIA, F176 variant, sequence (P08637 17-208, change not shown): as the sequence (P08637 other isoform, or with tags, fused parts or gaps mutant) above, with V160F counted along it
Procedure: as §1

human Fcγ receptor IIIB = human Fcγ receptor IIIB (human, UniProt O75015 17-200); experiment: as above
human Fcγ receptor IIIB, sequence (O75015 17-200): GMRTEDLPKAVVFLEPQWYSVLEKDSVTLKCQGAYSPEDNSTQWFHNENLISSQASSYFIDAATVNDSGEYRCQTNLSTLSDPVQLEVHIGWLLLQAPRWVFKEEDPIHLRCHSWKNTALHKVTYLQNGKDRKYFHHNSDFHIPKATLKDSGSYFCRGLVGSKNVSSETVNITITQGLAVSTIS
Procedure: as §1

[3] = target: T2, cynomolgus Fcγ receptor III (cynomolgus monkey, UniProt Q8SPW2 17-208); experiment: SPR (Biacore T200), construct amine-coupled, soluble cyno Fcγ receptor as analyte
T2 construct: Called recombinant, soluble; also called Cyno RIII
T2 sequence (Q8SPW2 17-208): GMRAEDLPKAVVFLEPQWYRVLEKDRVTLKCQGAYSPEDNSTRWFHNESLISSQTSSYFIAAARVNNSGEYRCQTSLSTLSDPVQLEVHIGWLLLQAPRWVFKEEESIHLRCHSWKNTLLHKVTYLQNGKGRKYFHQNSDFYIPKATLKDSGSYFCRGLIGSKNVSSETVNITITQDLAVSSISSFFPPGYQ
Procedure: as §1

[4] = target: T3, Full-length Human PSMA (TSC435), on cells (human, UniProt Q04609 1-750); experiment: flow cytometry on C4-2B cells, PE goat anti-human IgG Fc secondary, MFI (median)
T3 construct: also called CHOK1SV/huPSMA; PSMA on C4-2B, 22RV1, LNCaP, MDA-PCa-2b cells
Procedure: (§2) Constructs were initially tested in CD3ε and PSMA binding assays on Jurkat and C4-2B cells. Cells were labelled at approximately 100,000 cells per well, in 96-well plates, with serial dilutions of bispecific constructs ranging in concentration from of 0.1 to 300 nM, for 30 min on ice. Primary label was followed by washes and incubation with PE-labeled minimum cross species reactive secondary antibody, goat anti-human IgG Fcγ, F(ab′)2 (Jackson Laboratory) for 30 minutes on ice. Washes and incubation were done in staining buffer (PBS with 0.2% BSA and 2 mM EDTA). Cells were collected using an BD™ LSRII or a BD FACSymphony™ flow cytometer (BD Biosciences) and analyzed by FlowJo flow cytometry analysis software. Median fluorescence intensity (MFI) of bound molecules on cells was determined after exclusion of doublets. Results were plotted and nonlinear regression analysis to determine EC50 values was performed using GraphPad Prism 7© graphing and statistics software.

[5] = target: T3, Full-length Human PSMA (TSC435), on …; experiment: as above; remark: listed apart in the source
Procedure: as §2

[6] = target: T4, human CD3ε in the TCR/CD3 complex on Jurkat cells (human, UniProt P07766 23-207); experiment: flow cytometry on Jurkat cells, PE goat anti-human IgG Fc secondary, MFI (median)
T4 construct: whole, on cells; On the cells it stands in the whole TCR/CD3 complex; also called CD3 (+) cells; CD3-expressing Jurkat cells
T4 sequence (P07766 23-207, one chain of several): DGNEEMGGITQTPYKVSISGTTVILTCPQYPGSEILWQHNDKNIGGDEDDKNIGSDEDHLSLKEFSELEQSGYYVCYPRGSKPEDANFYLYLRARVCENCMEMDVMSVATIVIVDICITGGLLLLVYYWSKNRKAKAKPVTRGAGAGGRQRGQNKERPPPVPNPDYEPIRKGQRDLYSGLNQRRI
Procedure: as §2

[7] = target: T4, human CD3ε in the TCR/CD3 complex on …; experiment: as above; remark: listed apart in the source
Procedure: as §2

[8] = target: T4, human CD3ε in the TCR/CD3 complex on …; experiment: flow cytometry, drawn table 'On- Cell Binding Parameters', row 'Human CD3 binding affinity'
Procedure: as §2

[9] = target: T3, Full-length Human PSMA (TSC435), on …; experiment: flow cytometry, drawn table 'On- Cell Binding Parameters', row 'Human PSMA binding affinity'
[10] = target: T1, Full-length cynomolgus monkey PSMA …; experiment: flow cytometry on CHO-CynoPSMA cells, Median (PE); drawn table row 'Cyno PSMA binding affinity'

binding result (human Fcγ receptor I)	binding result [1]	binding result [2]	binding result (human Fcγ receptor IIIB)	binding result [3]	EC50 [4]	EC50 [5]	EC50 [6]	EC50 [7]	EC50 [8]	Max [8]	EC50 [9]	Max [9]	EC50 [10]	Max [10]	Binder
no binding (tested: 4-6 µM)	no binding (tested: 4-6 µM)	no binding (tested: 4-6 µM)	no binding (tested: 4-6 µM)	no binding (tested: 4-6 µM)	7 nM	7 nM	2 nM	2 nM	2 nM	15000	10 nM	1400	20 nM	6000	TSC266 Anti PSMA scFv x Anti CD3 scFv ADAPTIR (bispecific antibody, The anti-PSMA domain is that of PSMA01012 and the anti-CD3 domain is DRA222; also called unoptimized parent construct; TSC266 control (PSMA × CD3 bispecific protein)) DIQMTQSPSAMSASVGDRVTITCRASKSISKYLAWFQQKPGKVPKLRIHSGSTLQSGVPSRFSGSGSGTEFTLTISSLQPEDFATYYCQQHIEYPWTFGQGTKVEIKRGGGGSGGGGSGGGGSQVQLVQSGAEVKKPGASVKVSCKASGYTFTDYYMHWVRQAPGQGLEWMGYFNPYNDYTRYAQKFQGRVTMTRDTSISTAYMELSSLRSDDTAVYYCARSDGYYDAMDYWGQGTTVTVSSSEPKSSDKTHTCPPCPAPEAAGAPSVFLFPPKPKDTLMISRTPEVTCVVVDVSHEDPEVKFNWYVDGVEVHNAKTKPREEQYNSTYRVVSVLTVLHQDWLNGKAYACAVSNKALPAPIEKTISKAKGQPREPQVYTLPPSRDELTKNQVSLTCLVKGFYPSDIAVEWESNGQPENNYKTTPPVLDSDGSFFLYSKLTVDKSRWQQGNVFSCSVMHEALHNHYTQKSLSLSPGQRHNNSSLNTGTQMAGHSPNSQVQLVESGGGVVQPGRSLRLSCKASGYTFTRSTMHWVRQAPGQGLEWIGYINPSSAYTNYNQKFKDRFTISADKSKSTAFLQMDSLRPEDTGVYFCARPQVHYDYNGFPYWGQGTPVTVSSGGGGSGGGGSGGGGSAQDIQMTQSPSSLSASVGDRVTMTCSASSSVSYMNWYQQKPGKAPKRWIYDSSKLASGVPARFSGSGSGTDYTLTISSLQPEDFATYYCQQWSRNPPTFGGGTKLQITSSS
no binding (tested: 4-6 µM)	no binding (tested: 4-6 µM)	no binding (tested: 4-6 µM)	no binding (tested: 4-6 µM)	no binding (tested: 4-6 µM)	1 nM	1 nM	> 208 nM	> 200 nM	> 200 nM	2000	1 nM	2400	5 nM	22000	PSMA01107 Anti-PSMA scFv x Fc x linker x Anti CD3 scFv; Anti PSMA scFv x Fc (bispecific antibody, Heterodimer, bivalent for PSMA and monovalent for CD3 (VH-VL scFv at the C-terminus); also called PSMA1107) chain 1: QVQLVQSGAEVKKPGASVKVSCKASGYTFTDYYMHWVRQAPGQGLEWMGYFNPYNDYTRYAQKFQGRVTMTRDTSTSTVYMELSSLRSEDTAVYYCARSDGYYDAMDYWGQGTTVTVSSGGGGSGGGGSGGGGSGGGGSDIQMTQSPSSLSASVGDRVTITCRASKSISKYLAWYQQKPGKAPKLLIHSGSSLESGVPSRFSGSGSGTEFTLTISSLQPDDFATYYCQQHIEYPWTFGQGTKVEIKEPKSSDKTHTCPPCPAPPAAAPSVFLFPPKPKDTLMISRTPEVTCVVVDVSHEDPEVKFNWYVDGVEVHNAKTKPREEQYNSTYRVVSVLTVLHQDWLNGKEYKCAVSNKALPAPIEKTISKAKGQPREPQVYTLPPSRDELTKNQVSLWCLVKGFYPSDIAVEWESNGQPENNYKTTPPVLDSDGSFFLYSKLTVDKSRWQQGNVFSCSVMHEALHNHYTQKSLSLSPGGGGSPSQVQLVQSGAEVKKPGASVKVSCKASGYTFTRSTMHWVRQAPGQGLEWIGYINPSSAYTNYAQKFQGRVTLTADKSTSTAYMELSSLRSEDTAVYYCASPQVHYDYNGFPYWGQGTLVTVSSGGGGSGGGGSGGGGSGGGGSDIQMTQSPSSLSASVGDRVTITCRASSSVSYMNWYQQKPGKAPKRWIYDSSKLASGVPSRFSGSGSGTDFTLTISSLQPEDFATYYCQQWSRNPPTFGQGTKVEIKRS chain 2: QVQLVQSGAEVKKPGASVKVSCKASGYTFTDYYMHWVRQAPGQGLEWMGYFNPYNDYTRYAQKFQGRVTMTRDTSTSTVYMELSSLRSEDTAVYYCARSDGYYDAMDYWGQGTTVTVSSGGGGSGGGGSGGGGSGGGGSDIQMTQSPSSLSASVGDRVTITCRASKSISKYLAWYQQKPGKAPKLLIHSGSSLESGVPSRFSGSGSGTEFTLTISSLQPDDFATYYCQQHIEYPWTFGQGTKVEIKEPKSSDKTHTCPPCPAPPAAAPSVFLFPPKPKDTLMISRTPEVTCVVVDVSHEDPEVKFNWYVDGVEVHNAKTKPREEQYNSTYRVVSVLTVLHQDWLNGKEYKCAVSNKALPAPIEKTISKAKGQPREPQVYTLPPSRDELTKNQVSLSCAVKGFYPSDIAVEWESNGQPENNYKTTPPVLDSDGSFFLVSKLTVDKSRWQQGNVFSCSVMHEALHNHYTQKSLSLSPG
